In patent US20140004120A1 (published 2014):
Positions count from the first letter of the chain named.

T1: rsDR5 (recombinant human DR5 extracellular domain protein) (UniProt O14763 56-183)
T1 chain: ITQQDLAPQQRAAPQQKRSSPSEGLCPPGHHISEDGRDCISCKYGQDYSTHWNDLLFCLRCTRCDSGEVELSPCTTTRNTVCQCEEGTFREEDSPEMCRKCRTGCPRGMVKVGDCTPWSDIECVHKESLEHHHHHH

B1: hB273_H2-1-NE/hB273_L1-NE (antibody, V domains shown)
VH: EVQLVQSGAEVKKPGASVKVSCKASGYSFIGYFMNWMKQSPGMSLEWIGRFNPYNEDTFYNQKFKGKATLTVDKSTSTAYMELSSLRSEDTAVYFCARSAYYFDSGGYFDYWGQGTLVTVSS
VL: DIVMTQSPLSLPVTPGEPASISCRSSQSLVHSNENTYLHWYLQKPGQSPQLLIYKVSNRFSGVPDRFSGSGSGTDFTLKISRVEAEDVGVYYCSQSTHVPWTFGPGTKVEIKR
B2: hB273_H2-1-NE/hB273_L1-NF (antibody, V domains shown)
VH: B1 VH
VL: B1 VL with E34F
B3: hB273_H2-1-NE/hB273_L1-NL (antibody, V domains shown)
VH: B1 VH
VL: B1 VL with E34L
B4: hB273_H2-4/hB273_L1 (antibody, V domains shown)
VH: B1 VH with E1Q, E56G, A97G
VL: B1 VL with E34G
B5: hB273_H1-1/hB273_L1 (antibody, V domains shown)
VH: B1 VH with E1Q, K38R, S40A, S44G, I48M, E56G, K67R, A68V, A97G
VL: B1 VL with E34G
B6: hB273_H2-5/hB273_L1 (antibody, V domains shown)
VH: B1 VH with E1Q, M43K, E56G, A97G
VL: B1 VL with E34G
B7: hB273_H2-3/hB273_L1 (antibody)
heavy: not shown
light: DIVMTQSPLSLPVTPGEPASISCRSSQSLVHSNGNTYLHWYLQKPGQSPQLLIYKVSNRFSGVPDRFSGSGSGTDFTLKISRVEAEDVGVYYCSQSTHVPWTFGPGTKVEIKRTVAAPSVFIFPPSDEQLKSGTASVVCLLNNFYPREAKVQWKVDNALQSGNSQESVTEQDSKDSTYSLSSTLTLSKADYEKHKVYACEVTHQGLSSPVTKSFNRGEC
B8: hB273_H2-1/hB273_L1 (antibody)
heavy: not shown
light: B7 light
B9: hB273_H2-2/hB273_L1 (antibody)
heavy: not shown
light: B7 light
B10: hB273_H1/hB273_L1 (antibody, V domains shown)
VH: B1 VH with E1Q, M37V, K38R, S40A, S44G, I48M, E56G, K67R, A68V, F95Y
VL: B1 VL with E34G
B11: hB273_H3/hB273_L1 (antibody, V domains shown)
VH: B1 VH with M43K, E56G, Y80H, A97G
VL: B1 VL with E34G
B12: hB273_H1/hB273_L2 (antibody)
heavy: not shown
light: B7 light with I2V, S7T, T14S, P15L, Q50K, Y92F
B13: hB273_H3/hB273_L2 (antibody)
heavy: not shown
light: B7 light with I2V, S7T, T14S, P15L, Q50K, Y92F
B14: hB273_H1/hB273_L3 (antibody)
heavy: not shown
light: B7 light with I2V, S7T, T14S, P15L, Q50K, Y92F, P105G
B15: hB273_H2/hB273_L3 (antibody)
heavy: not shown
light: B7 light with I2V, S7T, T14S, P15L, Q50K, Y92F, P105G
B16: hB273_H2/hB273_L2 (antibody)
heavy: not shown
light: B7 light with I2V, S7T, T14S, P15L, Q50K, Y92F
B17: hB273_H2/hB273_L1 (antibody)
heavy: not shown
light: B7 light
B18: hB273_H3/hB273_L3 (antibody)
heavy: not shown
light: B7 light with I2V, S7T, T14S, P15L, Q50K, Y92F, P105G

Biological target: T1, rsDR5 (recombinant human DR5 …)
Test: Biacore

Row | Binder | Kd
1 | B1 | 2.02 nM
2 | B2 | 1.76 nM
3 | B3 | 1.76 nM

Biological target: T1, rsDR5 (recombinant human DR5 …)
Test: Biacore
Remark: another data set of the same source

Row | Binder | Kd
4 | B4 | 1.55 nM
5 | B5 | 1.83 nM
6 | B6 | 1.38 nM
7 | B7 | 2.12 nM
8 | B8 | 1.99 nM
9 | B9 | 2.14 nM

Biological target: T1, rsDR5 (recombinant human DR5 …)
Test: Biacore
Remark: another data set of the same source

Row | Binder | Kd
10 | B10 | 5.45 nM
11 | B11 | 2.4 nM
12 | B12 | 6.53 nM
13 | B13 | 2.19 nM
14 | B14 | 6.04 nM
15 | B15 | 5.4 nM
16 | B16 | 4.47 nM
17 | B17 | 4.36 nM
18 | B18 | 2.15 nM
